System: serum uric acid (sUA)
Experiment: Serum uric acid (sUA) levels and sUA responders, open-label study of pegloticase with MTX (NCT03635957)
Type: in vivo, human
Protocol: The primary objective is to estimate the response rate during Month 6 (Weeks 20, 22, and 24), as measured by the sustained normalization of serum uric acid (SUA) to <6 mg/dL for at least 80% of the time during Month 6 in subjects receiving KXX with MTX.
The primary efficacy outcome endpoint is the sustained normalization of SUA to <6 mg/dL for at least 80% of the time during month 6 (weeks 20, 22, and 24) in subjects receiving KXX with MTX. This is slightly below the urate solubility threshold and this threshold has been the accepted standard for nearly all modern gout trials. Participants who achieve this endpoint were classified as “responders.” Serum uric acid (SUA) responders may also be defined as participants achieving and maintaining SUA <6 mg/dL for at least 80% of the time during Month 6 (Weeks 20, 22, and 24).
Blood samples may be collected prior to each pegloticase infusion for measurement of SUA levels using the Beckman Coulter AU System Uric Acid procedure. Participants were declared “non-responders” if there were SUA measures >6 mg/dL at 2 consecutive study visits beginning with the week 2 visit. […] If the SUA goal is not maintained before or at the 12-week mark, it was assumed that the participant had developed clinically relevant anti-pegloticase antibody and they received no further infusions. This assumption and subsequent discontinuation of pegloticase was consistent with the protocol of large phase III randomized controlled trials and the product label. A formal stopping rule was 2 occasions of SUA levels of greater than 6 mg/dL.
Clinical Chemistry—Blood samples were collected prior to each pegloticase infusion for measurement of SUA levels (primary efficacy parameter) using the Beckman Coulter AU System Uric Acid procedure. In this procedure uric acid is converted to hydrogen peroxide. Hydrogen peroxide reacts with reagent to produce a chromophore which is read bichromatically at 660/800 nm. The amount of dye formed is proportional to the uric acid concentration in the sample.
Serum samples for measurement of SUA levels were collected at the Screening Visit, the Week −4 Visit (prior to the first dose of MTX), and the Week −2 Visit during the MTX Run-in Period; within 48 hours prior to each pegloticase infusion and after the end of each pegloticase infusion prior to discharge from the site during the Pegloticase+IMM Period; at the non-infusion Week 52/End of Study/Early Termination Visits and at the Post Treatment 3 and 6 Month Follow-up Visits. Additional serum samples for SUA levels were collected at optional non-infusion (Frequent Sampling) Visits at Weeks 1 and 7. […] Subjects with SUA level >6 mg/dL at 2 consecutive visits beginning at Week 2 visit discontinued treatment, completed the End of Pegloticase Infusion Visit procedures within 2 weeks and continued the subject visits according to the protocol (without treatment).
Efficacy analyses were performed using the modified intention-to-treat (mITT) population, defined as all enrolled subjects who received ≥1 dose of pegloticase. The proportion of Month 6 responders was summarized, along with a 95% confidence interval for the proportion. The proportion of Month 3 and overall (Months 3 and 6 combined) responders was analyzed similarly.
A subject was declared a non-responder if the subject had SUA level >6 mg/dL at 2 consecutive study visits beginning with the Week 2 Visit. In addition, a subject who withdraws from study treatment for any reason after the first dose of pegloticase in the KXX+MTX Period and prior to Month 6 (for the primary endpoint) or Month 3 (for the secondary endpoint) was considered a non-responder if SUA values were not collected at the planned time points.
Patients were administered oral MTX (15 mg/week) and folate (1 mg/day) 4 weeks prior to the first pegloticase infusion (Day 1) and throughout the pegloticase treatment period. […]

[1] = Week 34 - Pre-Infusion, Month 6 sUA Responders
[2] = Week 34 - Pre-Infusion, mITT, n=10
[3] = Week 36 - Post-Infusion, Month 6 sUA Responders
[4] = Week 36 - Post-Infusion, mITT, n=6
[5] = Week 36 - Pre-Infusion, Month 6 sUA Responders
[6] = Week 36 - Pre-Infusion, mITT, n=9
[7] = Week 38 - Pre-Infusion, Month 6 sUA Responders
[8] = Week 38 - Pre-Infusion, mITT, n=5
[9] = Week 40 - Pre-Infusion, Month 6 sUA Responders
[10] = Week 40 - Pre-Infusion, mITT, n=3
[11] = Week 42 - Pre-Infusion, Month 6 sUA Responders
[12] = Week 42 - Pre-Infusion, mITT, n=3
[13] = Week 44 - Pre-Infusion, Month 6 sUA Responders
[14] = Week 44 - Pre-Infusion, mITT, n=3
[15] = Week 46 - Pre-Infusion, Month 6 sUA Responders
[16] = Week 46 - Pre-Infusion, mITT, n=2
[17] = Week 48 - Post-Infusion, Month 6 sUA Responders
[18] = Week 48 - Post-Infusion, mITT, n=3
[19] = Week 48 - Pre-Infusion, Month 6 sUA Responders
[20] = Week 48 - Pre-Infusion, mITT, n=2
[21] = Week 50 - Post-Infusion, Month 6 sUA Responders
[22] = Week 50 - Post-Infusion, mITT, n=3
[23] = Week 50 - Pre-Infusion, Month 6 sUA Responders
[24] = Week 50 - Pre-Infusion, mITT, n=2
[25] = Week 52/ET, Month 6 sUA Responders

B1: pegloticase (protein)
chain: TYKKNDEVEFVRTGYGKDMIKVLHIQRDGKYHSIKEVATTVQLTLSSKKDYLHGDNSDVIPTDTIKNTVNVLAKFKGIKSIETFAVTICEHFLSSFKHVIRAQVYVEEVPWKRFEKNGVKHVHAFIYTPTGTHFCEVEQIRNGPPVIHSGIKDLKVLKTTQSGFEGFIKDQFTTLPEVKDRCFATQVYCKWRYHQGRDVDFEATWDTVRSIVLQKFAGPYDKGEYSPSVQKTLYDIQVLTLGQVPEIEDMEISLPNIHYLNIDMSKMGLINKEEVLLPLDNPYGKITGTVKRKLSSRL
modifications: monomethoxy PEG conjugated; Krystexxa Sequence
notes: covalent conjugate of uricase produced by a genetically modified strain of Escherichia coli and monomethoxypoly (ethylene glycol)
sUA < 6 mg/dL, % [1]: (100%)
sUA Change from Baseline, Mean [1]: -8.47 mg/dL
sUA Change from Baseline, Median [1]: -7.95 mg/dL
sUA Observed, Mean [1]: 0.82 mg/dL
sUA Observed, Median [1]: 0.30 mg/dL
sUA < 6 mg/dL, n (%) [2]: 10 (100%)
sUA Change from Baseline, Mean (SD) [2]: −8.47 (3.248) mg/dL
sUA Change from Baseline, Median [2]: -7.95 mg/dL
sUA Observed, Mean (SD) [2]: 0.82 (1.046) mg/dL
sUA Observed, Median [2]: 0.30 mg/dL
sUA < 6 mg/dL, % [3]: (100%)
sUA Change from Baseline, Mean [3]: -9.38 mg/dL
sUA Change from Baseline, Median [3]: -9.20 mg/dL
sUA Observed, Mean [3]: 0.30 mg/dL
sUA Observed, Median [3]: 0.30 mg/dL
sUA < 6 mg/dL, n (%) [4]: 6 (100%)
sUA Change from Baseline, Mean (SD) [4]: −9.38 (3.799) mg/dL
sUA Change from Baseline, Median [4]: -9.20 mg/dL
sUA Observed, Mean (SD) [4]: 0.30 (0.000) mg/dL
sUA Observed, Median [4]: 0.30 mg/dL
sUA < 6 mg/dL, % [5]: ( 88.9%)
sUA Change from Baseline, Mean [5]: -7.90 mg/dL
sUA Change from Baseline, Median [5]: -8.60 mg/dL
sUA Observed, Mean [5]: 1.58 mg/dL
sUA Observed, Median [5]: 0.30 mg/dL
sUA < 6 mg/dL, n (%) [6]: 8 (88.9%)
sUA Change from Baseline, Mean (SD) [6]: −7.90 (4.094) mg/dL
sUA Change from Baseline, Median [6]: -8.60 mg/dL
sUA Observed, Mean (SD) [6]: 1.58 (2.425) mg/dL
sUA Observed, Median [6]: 0.30 mg/dL
sUA < 6 mg/dL, % [7]: (100%)
sUA Change from Baseline, Mean [7]: -8.41 mg/dL
sUA Change from Baseline, Median [7]: -8.60 mg/dL
sUA Observed, Mean [7]: 0.93 mg/dL
sUA Observed, Median [7]: 0.30 mg/dL
sUA < 6 mg/dL, n (%) [8]: 5 (100%)
sUA Change from Baseline, Mean (SD) [8]: −8.41 (5.229) mg/dL
sUA Change from Baseline, Median [8]: -8.60 mg/dL
sUA Observed, Mean (SD) [8]: 0.93 (1.583) mg/dL
sUA Observed, Median [8]: 0.30 mg/dL
sUA < 6 mg/dL, % [9]: (100%)
sUA Change from Baseline, Mean [9]: -11.30 mg/dL
sUA Change from Baseline, Median [9]: -9.80 mg/dL
sUA Observed, Mean [9]: 0.30 mg/dL
sUA Observed, Median [9]: 0.30 mg/dL
sUA < 6 mg/dL, n (%) [10]: 3 (100%)
sUA Change from Baseline, Mean (SD) [10]: −11.30 (3.686) mg/dL
sUA Change from Baseline, Median [10]: -9.80 mg/dL
sUA Observed, Mean (SD) [10]: 0.30 (0.000) mg/dL
sUA Observed, Median [10]: 0.30 mg/dL
sUA < 6 mg/dL, % [11]: (100%)
sUA Change from Baseline, Mean [11]: -11.30 mg/dL
sUA Change from Baseline, Median [11]: -9.80 mg/dL
sUA Observed, Mean [11]: 0.30 mg/dL
sUA Observed, Median [11]: 0.30 mg/dL
sUA < 6 mg/dL, n (%) [12]: 3 (100%)
sUA Change from Baseline, Mean (SD) [12]: −11.30 (3.686) mg/dL
sUA Change from Baseline, Median [12]: -9.80 mg/dL
sUA Observed, Mean (SD) [12]: 0.30 (0.000) mg/dL
sUA Observed, Median [12]: 0.30 mg/dL
sUA < 6 mg/dL, % [13]: (100%)
sUA Change from Baseline, Mean [13]: -10.55 mg/dL
sUA Change from Baseline, Median [13]: -9.80 mg/dL
sUA Observed, Mean [13]: 1.05 mg/dL
sUA Observed, Median [13]: 0.30 mg/dL
sUA < 6 mg/dL, n (%) [14]: 3 (100%)
sUA Change from Baseline, Mean (SD) [14]: −10.55 (4.625) mg/dL
sUA Change from Baseline, Median [14]: -9.80 mg/dL
sUA Observed, Mean (SD) [14]: 1.05 (1.305) mg/dL
sUA Observed, Median [14]: 0.30 mg/dL
sUA < 6 mg/dL, % [15]: (100%)
sUA Change from Baseline, Mean [15]: -12.65 mg/dL
sUA Change from Baseline, Median [15]: -12.65 mg/dL
sUA Observed, Mean [15]: 0.30 mg/dL
sUA Observed, Median [15]: 0.30 mg/dL
sUA < 6 mg/dL, n (%) [16]: 2 (100%)
sUA Change from Baseline, Mean (SD) [16]: −12.65 (4.031) mg/dL
sUA Change from Baseline, Median [16]: -12.65 mg/dL
sUA Observed, Mean (SD) [16]: 0.30 (0.000) mg/dL
sUA Observed, Median [16]: 0.30 mg/dL
sUA < 6 mg/dL, % [17]: (100%)
sUA Change from Baseline, Mean [17]: -10.33 mg/dL
sUA Change from Baseline, Median [17]: -9.80 mg/dL
sUA Observed, Mean [17]: 1.60 mg/dL
sUA Observed, Median [17]: 0.30 mg/dL
sUA < 6 mg/dL, n (%) [18]: 3 (100%)
sUA Change from Baseline, Mean (SD) [18]: −10.33 (4.922) mg/dL
sUA Change from Baseline, Median [18]: -9.80 mg/dL
sUA Observed, Mean (SD) [18]: 1.60 (2.252) mg/dL
sUA Observed, Median [18]: 0.30 mg/dL
sUA < 6 mg/dL, % [19]: (100%)
sUA Change from Baseline, Mean [19]: -12.65 mg/dL
sUA Change from Baseline, Median [19]: -12.65 mg/dL
sUA Observed, Mean [19]: 0.30 mg/dL
sUA Observed, Median [19]: 0.30 mg/dL
sUA < 6 mg/dL, n (%) [20]: 2 (100%)
sUA Change from Baseline, Mean (SD) [20]: −12.65 (4.031) mg/dL
sUA Change from Baseline, Median [20]: -12.65 mg/dL
sUA Observed, Mean (SD) [20]: 0.30 (0.000) mg/dL
sUA Observed, Median [20]: 0.30 mg/dL
sUA < 6 mg/dL, % [21]: (100%)
sUA Change from Baseline, Mean [21]: -10.57 mg/dL
sUA Change from Baseline, Median [21]: -9.80 mg/dL
sUA Observed, Mean [21]: 1.37 mg/dL
sUA Observed, Median [21]: 0.30 mg/dL
sUA < 6 mg/dL, n (%) [22]: 3 (100%)
sUA Change from Baseline, Mean (SD) [22]: −10.57 (4.598) mg/dL
sUA Change from Baseline, Median [22]: -9.80 mg/dL
sUA Observed, Mean (SD) [22]: 1.37 (1.848) mg/dL
sUA Observed, Median [22]: 0.30 mg/dL
sUA < 6 mg/dL, % [23]: (100%)
sUA Change from Baseline, Mean [23]: -12.65 mg/dL
sUA Change from Baseline, Median [23]: -12.65 mg/dL
sUA Observed, Mean [23]: 0.30 mg/dL
sUA Observed, Median [23]: 0.30 mg/dL
sUA < 6 mg/dL, n (%) [24]: 2 (100%)
sUA Change from Baseline, Mean (SD) [24]: −12.65 (4.031) mg/dL
sUA Change from Baseline, Median [24]: -12.65 mg/dL
sUA Observed, Mean (SD) [24]: 0.30 (0.000) mg/dL
sUA Observed, Median [24]: 0.30 mg/dL
sUA < 6 mg/dL, % [25]: (100%)
sUA Change from Baseline, Mean [25]: -12.65 mg/dL
sUA Change from Baseline, Median [25]: -12.65 mg/dL
sUA Observed, Mean [25]: 0.30 mg/dL
sUA Observed, Median [25]: 0.30 mg/dL
sUA < 6 mg/dL, n (%) (Week 52/ET, mITT, n=2): 2 (100%)
sUA Change from Baseline, Mean (SD) (Week 52/ET, mITT, n=2): −12.65 (4.031) mg/dL
sUA Change from Baseline, Median (Week 52/ET, mITT, n=2): -12.65 mg/dL
sUA Observed, Mean (SD) (Week 52/ET, mITT, n=2): 0.30 (0.000) mg/dL
sUA Observed, Median (Week 52/ET, mITT, n=2): 0.30 mg/dL
